Assay results from paper PMC3378601 (PLoS Biology, 2012).

Biological target: T1, Hsp42, yeast small heat shock protein (yeast, UniProt Q12329 1-375)
T1 construct: Hsp42, small heat shock protein of the yeast cytosol; also called sHsp; source: purified as described [28]; copies: 24
Assay: co-sedimentation; preassembled NM fibers (5 µM NM monomer) incubated 60 min at 25°C with Hsp26 or Hsp42 (10 µM); fibers recovered at 16,000 g for 30 min; pellet with or without a wash step, SDS-PAGE, Coomassie
Settings: both partners purified

T1 sequence (Q12329 whole entry): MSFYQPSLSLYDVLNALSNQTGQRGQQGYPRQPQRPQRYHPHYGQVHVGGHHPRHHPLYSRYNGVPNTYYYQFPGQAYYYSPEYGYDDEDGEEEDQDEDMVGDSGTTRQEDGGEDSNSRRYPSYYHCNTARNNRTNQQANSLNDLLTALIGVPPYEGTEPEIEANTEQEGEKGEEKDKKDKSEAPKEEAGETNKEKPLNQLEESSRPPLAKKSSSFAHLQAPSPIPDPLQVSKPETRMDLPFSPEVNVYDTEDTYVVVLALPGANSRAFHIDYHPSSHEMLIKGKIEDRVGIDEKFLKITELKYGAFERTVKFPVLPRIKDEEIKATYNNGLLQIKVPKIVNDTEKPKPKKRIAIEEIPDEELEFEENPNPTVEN

B1: NM, the prion domain (N and M domains) of the yeast translation termination factor Sup35, untagged (domain or fragment, UniProt P05453 1-253, looked up)
chain: MSDSNQGNNQQNYQQYSQNGNQQQGNNRYQGYQAYNAQAQPAGGYYQNYQGYSGYQQGGYQQYNPDAGYQQQYNPQGGYQQYNPQGGYQQQFNPQGGRGNYKNFNYNNNLQGYQAGFQPQSQGMSLNDFQKQQKQAAPKPKKTLKLVSSSGIKLANATKKVGTKPAESDKKEEEKSAETKEPTKEPTKVEEPVKKEEKPVQTEEKTEEKSELPKVEDLKISESTHNTNNANVTSADALIKEQEEEVDDEVVND
notes: Sup35, yeast translation termination factor; N domain (amino acids 1-123) plus M domain (amino acids 124-253) = NM; One construct used in several states: soluble NM, molten oligomers and preassembled amyloid fibers (assembled at 25°C with agitation in assembly buffer); With Hsp26 and Hsp42 it stood as preassembled fibers; also called untagged NM; NM fibers; source: purified as described [48]
binding result: binds
